Measured values reported in US20160145598.

Target: thrombin

B1: FX-control+ of family 2 (insertion of the thrombin recognition site on fibrinogen = fibrinopeptide A; comparative) (protein)
chain: ANSFLEEMKKGHLERECMEETCSYEEAREVFEDSDKTNEFWNKYKDGDQCETSPCQNQGKCKDGLGEYTCTCLEGFEGKNCELFTRKLCSLDNGDCDQFCHEEQNSVVCSCARGYTLADNGKACIPTGPYPCGKQTLERRKRSVAQATSSSGEAPDSITWKPYDAADLDPTENPFDLLDFNQTQPERGDNNLTRDFLAEGGGVRIVGGQECKDGECPWQALLINEENEGFCGGTILSEFYILTAAHCLYQAKRFKVRVGDRNTEQEEGGEAVHEVEVVIKHNRFTKETYDFDIAVLRLKTPITFRMNVAPACLPERDWAESTLMTQKTGIVSGFGRTHEKGRQSTRLKMLEVPYVDRNSCKLSSSFIITQNMFCAGYDTKQEDACQGDSGGPHVTRFKDTYFVTGIVSWGEGCARKGKYGIYTKVTAFLKWIDRSMKTRGLPKAKSHAPEVITSSPLKEDQVDPRLIDGK
appearance of FXa after incubation with thrombin (Pefachrome FXa8595 hydrolysis at 405 nm): FX-IIa and FX-control+ are capable of being activated by thrombin and of releasing FXa
